Data published in publication PMC8924211 (Nature Communications, 2022).

Key:
Test in all cases: AlphaScreen or HTRF; saturation binding: HEK293 cells transfected with SNAP-tagged receptor (WT or mutant) and labelled with SNAP-Lumi4-Tb, incubated with increasing concentrations of galanin-A2 in the presence or absence of 100 uM unlabeled galanin, 1 h at room temperature; HTRF ratio 665 nm/620 nm
Conditions in all cases: one partner purified
SNAP-GAL1R H112^3.29A = molecular target: T1, SNAP-GAL1R H112^3.29A (human, UniProt P47211 1-349, H112^3.29A, Lumi4-Tb on the SNAP tag)
T1 construct: also called H112A; source: HEK293, transfected, on cells; not shown: SNAP tag, N-terminal, kept
T1 sequence (looked up): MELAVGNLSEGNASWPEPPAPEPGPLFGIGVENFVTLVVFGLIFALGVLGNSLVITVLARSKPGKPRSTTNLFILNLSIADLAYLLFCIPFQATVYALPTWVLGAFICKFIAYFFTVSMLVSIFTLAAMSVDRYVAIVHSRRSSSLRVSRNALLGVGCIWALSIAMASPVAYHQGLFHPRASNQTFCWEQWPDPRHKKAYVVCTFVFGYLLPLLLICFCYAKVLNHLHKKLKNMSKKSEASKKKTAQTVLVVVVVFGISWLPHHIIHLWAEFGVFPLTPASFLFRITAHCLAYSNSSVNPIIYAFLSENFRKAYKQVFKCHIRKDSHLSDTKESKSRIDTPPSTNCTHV

SNAP-GAL1R F177^ECL2A = molecular target: T2, SNAP-GAL1R F177^ECL2A (human, UniProt P47211 1-349, F177^ECL2A, Lumi4-Tb on the SNAP tag)
T2 construct: also called F177A; source: HEK293, transfected, on cells; not shown: SNAP tag, N-terminal, kept
T2 sequence (looked up): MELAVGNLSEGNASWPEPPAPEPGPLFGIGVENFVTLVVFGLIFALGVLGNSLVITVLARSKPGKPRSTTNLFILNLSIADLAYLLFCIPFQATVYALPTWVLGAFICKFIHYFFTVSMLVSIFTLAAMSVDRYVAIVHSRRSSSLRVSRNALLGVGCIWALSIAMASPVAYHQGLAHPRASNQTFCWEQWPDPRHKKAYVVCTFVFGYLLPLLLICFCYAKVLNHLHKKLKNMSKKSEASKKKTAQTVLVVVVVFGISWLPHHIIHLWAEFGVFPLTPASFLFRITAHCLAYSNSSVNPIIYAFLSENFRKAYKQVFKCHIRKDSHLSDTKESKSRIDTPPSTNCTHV

SNAP-GAL1R I266^6.54A = molecular target: T3, SNAP-GAL1R I266^6.54A (human, UniProt P47211 1-349, I266^6.54A, Lumi4-Tb on the SNAP tag)
T3 construct: also called I266A; source: HEK293, transfected, on cells; not shown: SNAP tag, N-terminal, kept
T3 sequence (looked up): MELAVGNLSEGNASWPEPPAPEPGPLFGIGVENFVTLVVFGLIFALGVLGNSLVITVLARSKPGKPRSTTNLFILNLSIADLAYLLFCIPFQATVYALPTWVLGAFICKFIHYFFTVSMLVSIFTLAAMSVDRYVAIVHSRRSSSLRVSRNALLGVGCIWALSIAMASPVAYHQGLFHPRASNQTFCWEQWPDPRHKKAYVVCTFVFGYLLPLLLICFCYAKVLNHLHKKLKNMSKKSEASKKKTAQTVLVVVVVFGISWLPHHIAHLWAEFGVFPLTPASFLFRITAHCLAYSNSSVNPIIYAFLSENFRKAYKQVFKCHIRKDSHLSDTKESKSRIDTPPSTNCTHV

SNAP-GAL1R H289^7.39A = molecular target: T4, SNAP-GAL1R H289^7.39A (human, UniProt P47211 1-349, H289^7.39A, Lumi4-Tb on the SNAP tag)
T4 construct: also called H289A; source: HEK293, transfected, on cells; not shown: SNAP tag, N-terminal, kept
T4 sequence (looked up): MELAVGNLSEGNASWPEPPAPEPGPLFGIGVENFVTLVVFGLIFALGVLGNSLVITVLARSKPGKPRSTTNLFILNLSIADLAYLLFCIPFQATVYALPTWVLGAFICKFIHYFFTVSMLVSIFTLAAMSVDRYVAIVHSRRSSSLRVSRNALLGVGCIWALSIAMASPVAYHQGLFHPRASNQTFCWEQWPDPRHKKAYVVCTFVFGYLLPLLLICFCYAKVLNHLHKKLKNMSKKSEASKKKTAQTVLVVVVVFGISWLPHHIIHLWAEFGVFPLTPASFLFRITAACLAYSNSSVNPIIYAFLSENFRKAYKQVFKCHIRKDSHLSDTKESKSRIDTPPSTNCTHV

SNAP-GAL1R W260^6.48A = molecular target: T5, SNAP-GAL1R W260^6.48A (human, UniProt P47211 1-349, W260^6.48A, Lumi4-Tb on the SNAP tag)
T5 construct: also called W260A; source: HEK293, transfected, on cells; not shown: SNAP tag, N-terminal, kept
T5 sequence (looked up): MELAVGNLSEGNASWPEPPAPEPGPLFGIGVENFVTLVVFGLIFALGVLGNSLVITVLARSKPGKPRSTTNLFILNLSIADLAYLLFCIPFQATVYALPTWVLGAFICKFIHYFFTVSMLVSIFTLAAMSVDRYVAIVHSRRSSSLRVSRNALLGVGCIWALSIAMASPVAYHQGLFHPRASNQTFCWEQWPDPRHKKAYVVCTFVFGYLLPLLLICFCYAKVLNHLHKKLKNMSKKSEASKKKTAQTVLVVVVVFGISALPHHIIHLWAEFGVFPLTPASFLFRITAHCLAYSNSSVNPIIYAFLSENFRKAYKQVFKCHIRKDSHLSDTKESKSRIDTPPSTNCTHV

B1: galanin-A2 (full-length galanin labeled with the dye A2 on an additional cysteine at the C-terminal end) (peptide)
peptide: GWTLNSAGYLLGPHAVGNHRSFSDKNGLTSC
modifications: dye A2 on the additional C-terminal cysteine
notes: numbers count on: the mature protein; additional cysteine at the C-terminal end of the peptide, carries the dye A2; source: synthetic peptide (synthesized by Vazyme, China)
Kd (SNAP-GAL1R H112^3.29A): 59.8 nM
Kd (SNAP-GAL1R F177^ECL2A): 305 nM
Kd (SNAP-GAL1R I266^6.54A): 245 nM
Kd (SNAP-GAL1R H289^7.39A): 136 nM
Kd (SNAP-GAL1R W260^6.48A): 51.2 nM
